Reference: article PMC10086585

Biological target: recombinant human netrin‐1 (R&D), on HIS1K biosensors (human) (UniProt O95631)
Assay: BLI; netrin-1 on HIS1K biosensors; m-Laminin-I at 3.12-100 nM; 30°C, 1,000 rpm; PBS, 0.02% Tween-20, 0.1% BSA; 5 min association, 5 min dissociation

mouse laminin‐I (complex)
Kd: 29.5 nM
